From PMC3958868, “The Proteasome Activator PA28γ, a Negative Regulator of p53, Is Transcriptionally Up-Regulated by p53”

B1: RE2 mutant (dsDNA)
DNA 1: GTGTCGCAAGAGGTATAGTCTCATGCTT
DNA 2: AAGCATGAGACTATACCTCTTGCGACAC
B2: RE2 wild-type (dsDNA)
DNA 1: GTGCATGAAGAGGTATAGTCTCATGCTT
DNA 2: AAGCATGAGACTATACCTCTTCATGCAC
B3: RE1 mutant (dsDNA)
DNA 1: TTATCGCTTGAAATACTTGTAT
DNA 2: ATACAAGTATTTCAAGCGATAA
B4: RE1 wild-type (dsDNA)
DNA 1: TTACATGTTGAAATACTTGTAT
DNA 2: ATACAAGTATTTCAACATGTAA

Molecular target: p53 (UniProt P04637 1-393)
Sequence (P04637 whole entry): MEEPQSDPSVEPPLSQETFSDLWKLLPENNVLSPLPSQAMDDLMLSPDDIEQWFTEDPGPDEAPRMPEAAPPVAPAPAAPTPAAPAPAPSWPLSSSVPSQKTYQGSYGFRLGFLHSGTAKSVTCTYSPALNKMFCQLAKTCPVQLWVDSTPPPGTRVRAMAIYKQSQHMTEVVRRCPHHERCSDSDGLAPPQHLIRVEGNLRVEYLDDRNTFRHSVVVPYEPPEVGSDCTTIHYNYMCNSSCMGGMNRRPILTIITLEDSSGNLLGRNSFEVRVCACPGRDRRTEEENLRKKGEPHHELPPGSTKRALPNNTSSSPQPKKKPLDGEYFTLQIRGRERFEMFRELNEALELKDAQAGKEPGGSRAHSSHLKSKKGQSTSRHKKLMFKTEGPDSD
Test: biotinylated DNA pull-down, western blot; 10 mM Tris-HCl pH 8.0, 40 mM KCl, 1 mM DTT, 6% glycerol, 0.05% NP-40; overnight at 4 °C; 20 µg p53, 1 µg biotinylated oligo; beads washed with Tris-EDTA (100 mM NaCl), binding buffer, PBS
Details: protein: recombinant; chain copies: 4; label: biotin

Row | Binder | binding result
1 | B1 | no binding
2 | B2 | binds
3 | B3 | no binding
4 | B4 | binds
